Measurements from US20170306005A1 (NASCIENT, published 2017).

Tests used:
human Fc-His-FBG = target: T1, human Fc-His-FBG (human, UniProt P24821 1974-2201); assay: cell-based or functional assay
T1 sequence: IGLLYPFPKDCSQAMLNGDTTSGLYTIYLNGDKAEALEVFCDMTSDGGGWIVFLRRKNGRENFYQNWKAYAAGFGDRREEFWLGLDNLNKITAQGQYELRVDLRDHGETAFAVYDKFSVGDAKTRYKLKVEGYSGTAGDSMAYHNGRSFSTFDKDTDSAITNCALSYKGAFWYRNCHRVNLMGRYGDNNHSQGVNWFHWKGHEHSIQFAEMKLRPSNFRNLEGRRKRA

[1] = target: T2, mouse tenascin-C rCd4-His-FBG (rat; mouse, UniProt P05540 207-392, limits assumed); assay: SPR, parental antibody
T2 construct: domain: domains 3 and 4; C-terminal FBG fusion; biotinylated in the ELISA screen; also called Mu TNC; mouse TNC rCd4-His-FBG; not shown: 6His tag
T2 sequence (chain (part 1 of 2)): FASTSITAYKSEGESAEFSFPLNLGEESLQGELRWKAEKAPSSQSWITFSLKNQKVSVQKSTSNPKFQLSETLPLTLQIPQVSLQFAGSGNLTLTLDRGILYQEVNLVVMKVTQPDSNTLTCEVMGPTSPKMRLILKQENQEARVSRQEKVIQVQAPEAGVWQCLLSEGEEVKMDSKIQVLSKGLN
T2 sequence (chain (part 2 of 2)): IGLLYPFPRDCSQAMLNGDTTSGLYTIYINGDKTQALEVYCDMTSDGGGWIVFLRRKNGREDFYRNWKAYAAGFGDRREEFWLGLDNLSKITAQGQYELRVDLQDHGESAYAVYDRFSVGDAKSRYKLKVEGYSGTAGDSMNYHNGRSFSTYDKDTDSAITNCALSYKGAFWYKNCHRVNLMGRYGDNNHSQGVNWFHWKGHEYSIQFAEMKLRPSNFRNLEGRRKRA

[2] = target: T3, human tenascin-C rCd4-His-FBG (rat; human, UniProt P05540 207-392, limits assumed); assay: SPR, captured Fab, 25 C
T3 construct: domain: domains 3 and 4; C-terminal FBG fusion; biotinylated in the ELISA and HTRF screens; also called Hu TNC; human TNC rCd4-His-FBG; not shown: 6His tag
T3 sequence (chain (part 1 of 2)): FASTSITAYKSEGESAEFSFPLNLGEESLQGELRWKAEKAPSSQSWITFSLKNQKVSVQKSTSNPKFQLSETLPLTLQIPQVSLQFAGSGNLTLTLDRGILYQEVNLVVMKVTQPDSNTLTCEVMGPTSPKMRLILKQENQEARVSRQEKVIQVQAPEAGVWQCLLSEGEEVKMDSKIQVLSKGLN
T3 sequence (chain (part 2 of 2)): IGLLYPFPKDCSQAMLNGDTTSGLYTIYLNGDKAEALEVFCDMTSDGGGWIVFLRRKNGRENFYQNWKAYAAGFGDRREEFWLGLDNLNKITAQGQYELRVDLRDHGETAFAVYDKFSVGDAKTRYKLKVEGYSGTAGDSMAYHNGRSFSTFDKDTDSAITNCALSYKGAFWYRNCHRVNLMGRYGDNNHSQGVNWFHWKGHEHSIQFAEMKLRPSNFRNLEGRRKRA
Method: (§1) Experiments were performed using a BIAcore T100 instrument with CM5 sensor chip according to the protocol provided with the Human Fab Capture Kit (GE, 28-9583-25). […] After reference signal subtraction, the data was fitted to a global 1:1 fit using the T100 BIAevaluation software (FIGS. 6 a-d).

[3] = target: T2, mouse tenascin-C rCd4-His-FBG; assay: SPR, captured Fab, 25 C
Method: as §1

[4] = target: T3, human tenascin-C rCd4-His-FBG; assay: SPR, 25 C; format not stated; SPR at 25 C
Human FGB-rCd4 = target: T4, Human FGB-rCd4; assay: ELISA (DELFIA), antigen coated on the well, purified Fab at 50 nM, detected with anti-kappa or anti-lambda mAb and Europium-conjugated anti-mouse mAb
T4 construct: Not the same construct as m1, which has the FBG at the C terminus; also called human TNC FBG-rCD4; human tenascin-C FBG-rCd4-His (FBG at the N terminus of the rat Cd4 tag); not shown: rat Cd4 (domains 3 and 4) tag, the C-terminal His6 tag and the vector-derived junction residues of pBIOCAM4
T4 chain: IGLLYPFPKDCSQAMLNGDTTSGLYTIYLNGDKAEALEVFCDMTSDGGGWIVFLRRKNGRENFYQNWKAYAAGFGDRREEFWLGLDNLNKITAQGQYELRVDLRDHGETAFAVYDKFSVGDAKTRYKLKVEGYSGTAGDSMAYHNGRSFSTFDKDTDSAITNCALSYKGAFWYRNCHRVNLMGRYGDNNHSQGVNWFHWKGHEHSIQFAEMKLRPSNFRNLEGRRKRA

IC50, inhibition of Fc-His-HuFBG-evoked IL-8 release, THP1-Blue cells (human Fc-His-FBG): 28.5 nM | IC50, inhibition of Fc-His-HuFBG-evoked alkaline phosphatase, THP1-Blue cells (human Fc-His-FBG): 20.6 nM | fold difference in affinity between human and mouse rCd4-his-FBG [1]: 6.9 fold | Kd [2]: 11.4 nM | koff [2]: 0.00563 s⁻¹ | kon [2]: 496000 M⁻¹ s⁻¹ | Kd [3]: 78.6 nM | koff [3]: 0.0347 s⁻¹ | kon [3]: 441000 M⁻¹ s⁻¹ | Kd [4]: 15 nM | binding result (Human FGB-rCd4): binds
B1: Fab 2A5 (Fab, V domains shown)
VH: EVRLVQSGAEVKKPGASVKVSCKVSGYTLTELSMHWVRQAPGKGLEWMGGFDPEDGETIYAQKFQGRVTMTEDTSTDTAYMELSSLRSEDTAVYYCATAQKETYALTYWGQGTLVTVSS
VL: DIQMTQSPASLPTSVGDRVTITCRASQYIQGFLNWYQQKPGKAPRLLIYAASTLQDGVPSRFSGSGYGTDFTLTISSLQPEDFATYYCQQSYSTPWTFGQGTKVEIKR
notes: monomeric Fab
